Columns and labels:
[1] = system: Escherichia coli K-12 (MG1655); test: Antimicrobial (bactericidal) activity against E. coli, effect of serum or serum proteins; assay type: cell-based; details: 5% (v/v) FBS in PBS, 37 °C; remaining viable cells (cfu)
Protocol: The Gram-negative bacteria Escherichia coli K-12 (MG1655) was cultured and plated in/on Luria–Bertani broth/agar plate (Merck Millipore, Darmstadt, Germany). The Gram-positive Staphylococcus aureus (ATCC 6538P) was cultured and plated in tryptic soy broth/agar (BD, MD, USA). The fungus Candida albicans (ATCC 14,053) was cultured and plated in YM broth/agar (BD, MD, USA). The bacteria were grown overnight, washed, and diluted 1:2000 in phosphate buffered saline (PBS), pH 7.5 or DMEM (Life Biotech, California, USA), pH 7.4. Bacteria (ca. 1 × 10^6 colony-forming units, cfu) were mixed with antimicrobial peptides (AMP) in 100 μl PBS and incubated at 37 °C (for bacteria) and at 30 °C (for fungus). Serial dilutions of each AMP-treated bacteria in PBS/DMEM supplemented with FBS were prepared and plated for the determination of remaining viable cells (expressed as cfu). At least three independent experiments were performed for each assay to determine the average value with standard deviation. MBC was defined as the lowest AMP concentration that kills 99.9% of the original inoculum.

fetal bovine serum (FBS) = test: Band shift of AMPs by fetal bovine serum; assay type: binding; details: 10–40% FBS; AMP 4 μg; PC buffer, room temperature, 30 min; horizontal native 8% PAGE
Protocol: (§1) Various AMPs (4 μg each) were incubated with fetal bovine serum (FBS) components at room temperature in 10 μl PC buffer for 30 min and subjected to horizontal native 8% PAGE, pH8.0 or pH8.8, and Coomassie Blue staining.

[2] = target: T1, protein D (albumin and α1-antitrypsin complex) (Bos taurus, UniProt P02769+P34955); test: Band shift of AMPs by protein D; assay type: binding, bovine; details: AMP 4 μg; protein 10 μg (Suppl. Fig. 3a); PC buffer, room temperature, 30 min; 8% horizontal native PAGE
T1 construct: The active components were further purified by fast performance liquid chromatography (FPLC) Mono Q and S12 column chromatography from the 70% saturated fraction; from tissue; host or cells: fetal bovine serum (70% ammonium sulfate fraction, FPLC Mono Q and Superose 12)
T1 sequence (P02769 25-607, one chain of several): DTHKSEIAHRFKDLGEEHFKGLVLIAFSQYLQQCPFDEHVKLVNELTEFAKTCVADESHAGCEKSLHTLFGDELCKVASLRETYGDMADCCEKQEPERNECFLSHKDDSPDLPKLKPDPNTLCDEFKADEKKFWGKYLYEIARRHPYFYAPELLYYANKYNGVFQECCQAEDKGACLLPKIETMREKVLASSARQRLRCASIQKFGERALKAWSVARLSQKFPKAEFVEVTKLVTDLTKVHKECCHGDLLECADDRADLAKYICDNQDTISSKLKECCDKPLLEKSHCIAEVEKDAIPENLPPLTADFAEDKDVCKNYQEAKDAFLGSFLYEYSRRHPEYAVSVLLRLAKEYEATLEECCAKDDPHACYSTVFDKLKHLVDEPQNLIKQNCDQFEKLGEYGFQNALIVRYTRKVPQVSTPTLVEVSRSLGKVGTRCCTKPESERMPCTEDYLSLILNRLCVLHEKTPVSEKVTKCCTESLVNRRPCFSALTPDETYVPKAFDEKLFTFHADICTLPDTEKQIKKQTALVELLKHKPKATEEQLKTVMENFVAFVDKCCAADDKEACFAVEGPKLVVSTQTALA

Apo-AI = details: cited from earlier work
From the text: In addition to protein D, the serum protein apolipoprotein AI (Apo-AI) was also pulled down from crude fetal bovine serum by immobilized TP4-A12I,A15I, but in a less amount (Fig. 2a). The Apo-AI with Mr = 28,080 Da is the major constituent of high-density lipoprotein (HDL), which is involved in the removal of cholesterol from peripheral tissues and its catabolism. […] The amount of Apo-A1 in fetal bovine serum was much less than that of protein D (Fig. 8a, b). Int ...

[3] = target: T2, protein B (α1-antitrypsin) (Bos taurus, UniProt P34955); test: Band shift of AMPs by protein B; assay type: binding, bovine; parameters: The homogeneities of collected protein A (albumin), protein B (α1-antitrypsin), protein C (serotransferrin) and protein D complex; from tissue; host or cells: fetal bovine serum (70% ammonium sulfate fraction, FPLC Mono Q); details: AMP 4 μg; protein 10 μg (Suppl. Fig. 3a); PC buffer, room temperature, 30 min; 8% horizontal native PAGE
T2 sequence (P34955 25-416): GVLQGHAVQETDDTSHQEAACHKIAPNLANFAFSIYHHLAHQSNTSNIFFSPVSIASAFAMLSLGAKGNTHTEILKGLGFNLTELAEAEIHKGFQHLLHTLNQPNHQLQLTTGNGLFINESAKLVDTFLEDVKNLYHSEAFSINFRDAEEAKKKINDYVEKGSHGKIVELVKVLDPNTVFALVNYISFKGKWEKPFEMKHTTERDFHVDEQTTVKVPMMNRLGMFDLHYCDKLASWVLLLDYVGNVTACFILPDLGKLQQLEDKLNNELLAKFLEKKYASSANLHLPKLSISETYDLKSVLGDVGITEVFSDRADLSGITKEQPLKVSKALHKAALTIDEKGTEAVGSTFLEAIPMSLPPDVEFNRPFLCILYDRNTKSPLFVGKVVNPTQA
Protocol: as §1

Substance: LL37: human AMP LL37 [reference compound]
- effect of FBS on antimicrobial activity against E. coli [1]: serum-mediated repression
- mobility of AMP in band shift assay with FBS (fetal bovine serum (FBS)): retarded
- binding to protein D (band shift) [2]: also bound by protein D
- effect of Apo-AI on antimicrobial and cytotoxic activities (Apo-AI): inhibits its antimicrobial and cytotoxic activities
- binding to protein B (band shift) [3]: not by protein A and protein B
